Source: the supplement of paper PMC11908140

B1: library; numbered along this chain (parent)
chain: MRKPRAAVGSGHRKQAASQEGRQKHAKNNSQAKPSACDGLARQPEEVVLQASVSSYHLFRDVAEVTAFRGSLLSWYDQEKRDLPWRRRAEDEMDLDRRAYAVWVSEVMLQQTQVATVINYYTGWMQKWPTLQDLASASLEEVNQLWAGLGYYSRGRRLQEGARKVVEELGGHMPRTAETLQQLLPGVGRYTAGAIASIAFGQATGVVDGNVARVLCRVRAIGADPSSTLVSQQLWGLAQQLVDPARPGDFNQAAMELGATVCTPQRPLCSQCPVESLCRARQRVEQEQLLASGSLSGSPDVEECAPNTGQCHLCLPPSEPWDQTLGVVNFPRKASRKPPREESSATCVLEQPGALGAQILLVQRPNSGLLAGLWEFPSVTWEPSEQLQRKALLQELQRWAGPLPATHLRHLGEVVHTFSHIKLTYQVYGLALEGQTPVTTVPPGARWLTQEEFHTAAVSTAMKKVFRVYQGQQPGTCMGSKRSQVSSPCSRKKPRMGQQVLDNFFRSHISTDAHSLNSAAQ

Variants of: B1
Assay: 8OG:A repair function score (normalized; synonymous = 0, nonsense = -1) (normalized log-likelihood score); higher = more repair activity (WT-like)
Details: with 8OG:A DNA repair reporter (GFP) in HEK-293 MUTYH KO cells
Outline: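 MUTYH knockout HEK-293 cells carrying lentiviral MUTYH cDNA NNN codon-scan libraries were grown with 10 pg/ml doxycycline and co-transfected with mCherry and a GFP reporter of 8OG:A repair. Viable mCherry+ cells were sorted at 72 h into GFP+ (repair) and GFP− bins, with three replicates per tile, and tile amplicons were sequenced. Rosace fitness scores for each tile were turned into a normalized repair function score anchored on the synonymous and nonsense distributions. Synonymous medians were set to 0 and nonsense medians to -1, and variants below 300 counts per million at the start were dropped.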

| Variant | 8OG:A repair function score |
| --- | --- |
| G155R | -0.543 |
| G155P | -0.0172 |
| Q351I | -0.0185 |
| Q351H | 0.0225 |
| R88F | -0.00866 |
| R88L | 0.00676 |
| K337F | -0.221 |
| G475V | -0.0131 |
| R266M | -0.0578 |
| N143W | -0.253 |
| N143G | -0.139 |
| L373M | -0.286 |
| Q435G | -0.0569 |
| D94W | -1 |
| L290N | 0.00556 |
| T455L | -0.171 |
| E256F | -0.679 |
| H508S | -0.00585 |
| P225C | -0.182 |
| P225S | -0.0602 |
| L169S | -0.284 |
| E106G | -1.3 |
| P494A | 0.0124 |
| A89N | -0.00625 |

| Variant | 8OG:A repair function score |
| --- | --- |
| A89I | -0.0304 |
| Q397T | -0.463 |
| S487T | -0.0203 |
| L95V | -0.00351 |
| S480W | 0.022 |
| S480I | -0.0226 |
| A461N | -0.222 |
| Q78T | -0.00936 |
| E178R | 0.0879 |
| V274C | -0.176 |
| A245Y | -0.107 |
| Y121K | -1.13 |
| G429V | -0.00866 |
| L396N | -0.969 |
| T380W | -0.271 |
| Y151D | -1 |
| H312M | -0.0518 |
| K80Q | -0.0315 |
| V465D | -0.864 |
| R163V | -0.0917 |
| R163T | -0.128 |
| V114D | -0.453 |
| V427M | -0.599 |
| V427G | -1.03 |

| Variant | 8OG:A repair function score |
| --- | --- |
| S231T | 0.0918 |
| S231H | -0.0123 |
| S231C | -0.12 |
| G297V | 0.0126 |
| G297Y | -0.0582 |
| Q323L | -0.0798 |
| Q323W | -0.0368 |
| Q323K | -0.0269 |
| A212G | -0.254 |
| V301S | -0.344 |
| V362L | -0.0488 |
| V117L | -0.727 |
| V468I | -0.0279 |
| S378D | -0.953 |
| S378P | -0.772 |
| P247D | -1.03 |
| T449G | -0.132 |
| T449Q | -0.0362 |
| V53D | 0.00694 |
| Y120R | -0.0662 |
| Q363S | -0.169 |
| V104W | -0.707 |
| V104G | -0.976 |
| A456V | -0.16 |

| Variant | 8OG:A repair function score |
| --- | --- |
| R398Y | 0.174 |
| L58K | -0.021 |
| G205V | -0.876 |
| V261E | -0.804 |
| H514L | -0.0137 |
| H514M | -0.00625 |
| V379A | 0.00194 |
| Q472M | -0.0129 |
| T346W | -0.751 |
| T346C | 0.0316 |
| G368I | -0.7 |
| G368W | -0.913 |
| S486P | 0.0275 |
| E433G | 0.00508 |
| C269Q | -1.19 |
| L139C | -0.0786 |
| V214Q | -0.911 |
| V214E | -0.927 |
| T424G | -0.293 |
| A192T | -1.07 |
| S292K | -0.0316 |
| R69G | -0.281 |
| P34E | 0.0965 |
| P34A | -0.039 |

| Variant | 8OG:A repair function score |
| --- | --- |
| T324H | -0.0241 |
| E140K | -0.15 |
| E140C | -0.0271 |
| A405G | -0.0383 |
| V207C | -0.542 |
| P174I | -0.9 |
| R175T | -0.00924 |
| R175D | -0.192 |
| P365H | -0.038 |
| G170V | -0.31 |
| G170I | -0.395 |
| G170N | 0.0595 |
| Q470L | 0.00494 |
| E302P | -0.223 |
| E302F | -0.253 |
| G293C | -0.0307 |
| G293D | -0.124 |
| G293S | -0.0376 |
| P383D | 0.0298 |
| P383H | 0.0207 |
| A137K | -0.626 |
| L295C | -0.0222 |
| D96I | -0.341 |
| D96L | -0.43 |

| Variant | 8OG:A repair function score |
| --- | --- |
| M93D | 0.0046 |
| M93E | 0.0066 |
| M93G | -0.0185 |
| K127V | -0.306 |
| A147I | -0.125 |
| D82H | -0.148 |
| D82K | -0.079 |
| H172Q | 0.0285 |
| H172P | -0.512 |
| H172R | -0.0155 |
| E303L | -0.0849 |
| Q111P | -1.13 |
| H410N | -0.157 |
| V500P | -0.0532 |
| V500W | -0.015 |
| T476D | 0.00347 |
| C304L | -0.16 |
| S52C | -0.0302 |
| S52M | -0.00303 |
| F466L | -0.0617 |
| T439L | -0.0119 |
| V327L | -0.388 |
| V327H | -0.532 |
| S459D | -0.823 |

| Variant | 8OG:A repair function score |
| --- | --- |
| S459W | -0.631 |
| G186A | -0.672 |
| G150M | -1.44 |
| G356V | -0.13 |
| R340I | -0.119 |
| K481C | 0.0191 |
| K481E | -0.00514 |
| K481Y | -0.0542 |
| L392Q | -0.839 |
| E375S | -0.243 |
| P404C | -0.224 |
| R86E | -2.16 |
| R86T | -0.606 |
| R213T | -1.01 |
| T406I | 0.313 |
| G39C | -0.0254 |
| Q388I | 0.175 |
| P306T | -0.00972 |
| S510L | 0.0205 |
| S510V | -0.00843 |
| S510T | 0.00117 |
| A194H | -1.31 |
| A194K | -1.06 |
